Data: PMC5970223, “Multiplexed profiling of GPCR activities by combining split TEV assays and EXT-based barcoded readouts” (Scientific Reports, 2018)
Counter-ions that a name gives are not always drawn.

Tests used:
[1] = system: dopamine and the adrenergic receptors; settings: U2OS cells, agonist 100 pM to 100 µM
Description: (§1) Two hours after transfection, all cell populations were pooled, mixed, and evenly divided into fractions for plating onto assay dishes (Fig. 2a). The cells were cultured and stimulated under identical conditions for agonist or antagonist assays as initially described for GPCR split TEV assays (Supplementary Fig. S1a,b).
(§2) After cell lysis, RNA from each sample was isolated and converted into cDNA by reverse transcription. […] This permits the mixing of all samples and sequencing of all pooled samples using a single sequencing run (Fig. 2b). The sample barcodes enable tracing experimental conditions, whereas the read counts per EXTs serve as quantitative measurements for the corresponding GPCRs. […] From the normalized data the fold changes of receptor activities were finally calculated.
(§3) In addition to the stimulation with the single compounds, a compound-mixture (mix) of all agonists was tested. The first set of experiments were carried out in the human osteosarcoma cell line U2OS. We normalized the raw sequencing data to total read numbers of sample codes, followed by averaging reads of internal and external calibrator EXTs as described above (Supplementary Fig. S4).
(§4) Cells were resuspended in culture medium without antibiotics at a density of 1.5 × 10^6 cells/ml (U2OS) or 3 × 10^6 cells/ml (PC12). […] Transfection-mixes were added to cell suspensions and incubated for 2 h at 37 °C without shaking. Suspensions were centrifuged for 5 min at 900 rpm and resuspended in culture medium to remove transfection reagents. All transfection samples were combined within one pool and plated on multiple wells of 6-well plates and incubated for 24 h at 37 °C. Afterwards, cells were starved for 17–18 h and then treated with compounds for 6 h in duplicates. After compound treatment cells were washed with PBS and 500 µl RLT lysis buffer was applied for cell lysis. Lysates were processed for sequencing as described below.
RNA was additional in solution treated with Turbo DNase (Ambion) for 30 min at 37 °C and repurified over an RNeasy column. […]

[2] = system: T1, somatostatin receptor SSTR1; assay: multiplexed GPCRprofiler assay in U2OS cells; format: cell-based, human; settings: agonist 100 pM to 100 µM
T1 construct: ORFs of GPCRs were PCR amplified; expressed in transfected cells; host or cells: U2OS
Description: as §1, §2, §3, §4
(§5) RNA was additional in solution treated with Turbo DNase (Ambion) for 30 min at 37 °C and repurified over an RNeasy column. First-strand cDNA synthesis was performed with 1 µg total RNA using superscript III reverse transcriptase (Invitrogen) and 120 pmol of a random nanomer primer. […] On order to differentiate different samples 13mer barcodes were introduced between 5′ Ion adapter and target sequence. All processed samples of an experiment were combined within one pool and purified using PCR clean-up kit (Macherey-Nagel).
(§6) Raw sequencing data analyses were done by using BLAST algorithm and in-house developed R scripts.

[3] = system: T2, somatostatin receptor SSTR2; assay: multiplexed GPCRprofiler assay in U2OS cells; format: cell-based, human; settings: agonist 100 pM to 100 µM
T2 construct: ORFs of GPCRs were PCR amplified; expressed in transfected cells; host or cells: U2OS
Description: as §1, §2, §3, §4, §5, §6

[4] = system: T3, somatostatin receptor SSTR3; assay: multiplexed GPCRprofiler assay in U2OS cells; format: cell-based, human; settings: agonist 100 pM to 100 µM
T3 construct: ORFs of GPCRs were PCR amplified; expressed in transfected cells; host or cells: U2OS
Description: as §1, §2, §3, §4, §5, §6

[5] = system: T4, Vasopressin receptor AVPR1A; assay: multiplexed GPCRprofiler assay in U2OS cells; format: cell-based, human; settings: agonist 100 pM to 100 µM
T4 construct: ORFs of GPCRs were PCR amplified; expressed in transfected cells; host or cells: U2OS
Description: as §1, §2, §3, §4, §5, §6

[6] = system: T5, Vasopressin receptor AVPR2; assay: multiplexed GPCRprofiler assay in U2OS cells; format: cell-based, human; settings: agonist 100 pM to 100 µM
T5 construct: ORFs of GPCRs were PCR amplified; expressed in transfected cells; host or cells: U2OS
Description: as §1, §2, §3, §4, §5, §6

[7] = molecular target: ADRA1A-V2R-NTEV-tevS-GV (human) (UniProt P35348); assay: split reporter (BiFC, NanoBiT); multiplexed GPCRprofiler: split TEV with EXT barcode read-out, identical experiment in PC12 cells (Supplementary Fig. S5)
ADRA1A-V2R-NTEV-tevS-GV (human), sequence (P35348 whole entry): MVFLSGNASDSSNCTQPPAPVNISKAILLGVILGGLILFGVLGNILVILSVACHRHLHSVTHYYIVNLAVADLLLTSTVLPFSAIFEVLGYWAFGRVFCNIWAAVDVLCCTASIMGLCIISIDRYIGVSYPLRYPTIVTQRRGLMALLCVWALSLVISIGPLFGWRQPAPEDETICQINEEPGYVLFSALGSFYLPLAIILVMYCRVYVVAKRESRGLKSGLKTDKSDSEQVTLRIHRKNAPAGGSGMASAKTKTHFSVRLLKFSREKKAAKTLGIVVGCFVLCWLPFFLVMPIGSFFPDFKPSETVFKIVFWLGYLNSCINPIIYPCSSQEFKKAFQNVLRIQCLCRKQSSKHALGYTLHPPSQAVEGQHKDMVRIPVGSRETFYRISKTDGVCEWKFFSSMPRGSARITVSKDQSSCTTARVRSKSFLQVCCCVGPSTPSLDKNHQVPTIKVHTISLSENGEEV

[8] = molecular target: AVPR1A-V2R-NTEV-tevS-GV (human) (UniProt P37288); assay: as above
AVPR1A-V2R-NTEV-tevS-GV (human), sequence (P37288 whole entry): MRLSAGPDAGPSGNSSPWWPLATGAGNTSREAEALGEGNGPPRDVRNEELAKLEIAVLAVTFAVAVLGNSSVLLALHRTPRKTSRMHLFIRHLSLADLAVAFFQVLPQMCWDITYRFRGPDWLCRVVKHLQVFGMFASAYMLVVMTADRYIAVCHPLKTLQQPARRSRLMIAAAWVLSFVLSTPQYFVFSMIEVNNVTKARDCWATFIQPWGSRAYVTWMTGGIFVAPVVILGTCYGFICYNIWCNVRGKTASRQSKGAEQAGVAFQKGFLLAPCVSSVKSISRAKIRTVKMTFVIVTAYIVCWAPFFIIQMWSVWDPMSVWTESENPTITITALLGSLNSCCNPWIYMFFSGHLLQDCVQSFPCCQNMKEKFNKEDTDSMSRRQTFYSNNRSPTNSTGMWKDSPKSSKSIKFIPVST

[9] = molecular target: HTR2A-V2R-NTEV-tevS-GV (human) (UniProt P28223); assay: as above
[10] = molecular target: ADRA2B-V2R-NTEV-tevS-GV (human) (UniProt P18089); assay: split reporter (BiFC, NanoBiT); multiplexed GPCRprofiler: split TEV with EXT barcode read-out, U2OS cells transiently transfected with GPCR-V2R-NTEV-tevS-GV and β-arrestin2delta-CTEV, pooled; serotonin, dopamine, epinephrine, vasopressin, somatostatin or their mix, 100 pM to 100 µM, 6 h; also with paliperidone or aripiprazole alone or with an agonist mix (1 µM each, with histamine); fold change over unstimulated
ADRA2B-V2R-NTEV-tevS-GV (human), sequence (P18089 whole entry): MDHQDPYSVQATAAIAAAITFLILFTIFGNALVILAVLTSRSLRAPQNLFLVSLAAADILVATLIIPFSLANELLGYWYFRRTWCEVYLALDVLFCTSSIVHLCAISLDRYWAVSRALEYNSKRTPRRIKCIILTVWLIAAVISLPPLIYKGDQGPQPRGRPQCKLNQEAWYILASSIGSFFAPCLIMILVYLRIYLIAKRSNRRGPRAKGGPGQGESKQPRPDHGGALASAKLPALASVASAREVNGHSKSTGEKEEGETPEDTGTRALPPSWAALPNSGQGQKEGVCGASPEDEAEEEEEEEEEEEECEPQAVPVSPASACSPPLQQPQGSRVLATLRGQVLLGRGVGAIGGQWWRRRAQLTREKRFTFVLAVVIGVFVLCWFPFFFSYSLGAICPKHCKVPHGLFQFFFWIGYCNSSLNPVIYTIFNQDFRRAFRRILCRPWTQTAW

[11] = molecular target: ADRA2C-V2R-NTEV-tevS-GV (human) (UniProt P18825); assay: as above
ADRA2C-V2R-NTEV-tevS-GV (human), sequence (P18825 whole entry): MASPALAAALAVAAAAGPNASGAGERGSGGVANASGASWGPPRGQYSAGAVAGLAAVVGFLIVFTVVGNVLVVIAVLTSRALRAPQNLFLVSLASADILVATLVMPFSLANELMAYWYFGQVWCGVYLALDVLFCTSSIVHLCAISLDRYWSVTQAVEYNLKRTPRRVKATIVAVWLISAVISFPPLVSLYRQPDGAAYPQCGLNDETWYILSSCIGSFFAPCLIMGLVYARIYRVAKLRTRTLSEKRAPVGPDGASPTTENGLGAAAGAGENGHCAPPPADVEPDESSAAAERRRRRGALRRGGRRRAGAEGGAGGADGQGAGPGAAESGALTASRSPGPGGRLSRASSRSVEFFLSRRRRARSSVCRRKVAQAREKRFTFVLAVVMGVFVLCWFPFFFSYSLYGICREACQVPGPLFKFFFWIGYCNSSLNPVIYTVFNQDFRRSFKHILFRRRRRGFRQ

[12] = molecular target: DRD1-V2R-NTEV-tevS-GV (human) (UniProt P21728); assay: as above
[13] = molecular target: DRD2-V2R-NTEV-tevS-GV (human) (UniProt P14416); assay: as above
DRD2-V2R-NTEV-tevS-GV (human), sequence (P14416 whole entry): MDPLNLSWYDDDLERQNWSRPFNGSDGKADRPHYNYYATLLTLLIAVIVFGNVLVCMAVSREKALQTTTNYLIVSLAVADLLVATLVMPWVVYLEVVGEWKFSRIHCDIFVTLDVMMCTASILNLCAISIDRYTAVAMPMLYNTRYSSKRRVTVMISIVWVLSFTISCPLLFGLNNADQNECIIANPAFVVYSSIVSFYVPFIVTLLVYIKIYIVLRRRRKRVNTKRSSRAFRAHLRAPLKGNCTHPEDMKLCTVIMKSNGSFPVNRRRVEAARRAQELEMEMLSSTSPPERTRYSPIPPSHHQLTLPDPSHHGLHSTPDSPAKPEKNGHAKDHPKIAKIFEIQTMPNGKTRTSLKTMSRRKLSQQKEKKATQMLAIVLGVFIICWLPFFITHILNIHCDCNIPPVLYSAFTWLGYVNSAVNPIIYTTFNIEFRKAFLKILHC

[14] = molecular target: DRD3-V2R-NTEV-tevS-GV (human) (UniProt P35462); assay: as above
DRD3-V2R-NTEV-tevS-GV (human), sequence (P35462 whole entry): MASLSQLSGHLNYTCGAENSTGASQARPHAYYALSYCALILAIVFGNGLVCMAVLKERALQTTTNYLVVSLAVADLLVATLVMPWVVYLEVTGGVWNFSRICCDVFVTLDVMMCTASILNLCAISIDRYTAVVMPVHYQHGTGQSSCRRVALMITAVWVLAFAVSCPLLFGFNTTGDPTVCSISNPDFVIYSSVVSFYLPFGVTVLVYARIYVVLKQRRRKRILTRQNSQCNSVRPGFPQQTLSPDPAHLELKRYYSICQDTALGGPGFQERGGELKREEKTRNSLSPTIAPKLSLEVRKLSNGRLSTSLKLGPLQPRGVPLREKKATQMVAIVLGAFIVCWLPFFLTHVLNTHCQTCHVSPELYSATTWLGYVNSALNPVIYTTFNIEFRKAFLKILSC

[15] = molecular target: SSTR1-V2R-NTEV-tevS-GV (human) (UniProt P30872); assay: as above
SSTR1-V2R-NTEV-tevS-GV (human), sequence (P30872 whole entry): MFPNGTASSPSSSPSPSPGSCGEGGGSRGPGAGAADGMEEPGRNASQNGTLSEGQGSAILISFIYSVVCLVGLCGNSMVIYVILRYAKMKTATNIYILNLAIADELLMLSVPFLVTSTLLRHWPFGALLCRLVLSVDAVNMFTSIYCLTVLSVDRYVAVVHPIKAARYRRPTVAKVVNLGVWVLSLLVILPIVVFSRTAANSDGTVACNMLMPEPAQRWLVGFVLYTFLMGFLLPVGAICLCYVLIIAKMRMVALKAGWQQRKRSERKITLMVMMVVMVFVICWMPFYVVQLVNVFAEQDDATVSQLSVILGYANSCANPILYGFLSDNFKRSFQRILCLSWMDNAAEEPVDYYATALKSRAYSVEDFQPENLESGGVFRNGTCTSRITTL

SSTR2 and SSTR3 = assay: as above

β-arrestin2delta-CTEV, sequence (P32121 1-383, stated change not applied): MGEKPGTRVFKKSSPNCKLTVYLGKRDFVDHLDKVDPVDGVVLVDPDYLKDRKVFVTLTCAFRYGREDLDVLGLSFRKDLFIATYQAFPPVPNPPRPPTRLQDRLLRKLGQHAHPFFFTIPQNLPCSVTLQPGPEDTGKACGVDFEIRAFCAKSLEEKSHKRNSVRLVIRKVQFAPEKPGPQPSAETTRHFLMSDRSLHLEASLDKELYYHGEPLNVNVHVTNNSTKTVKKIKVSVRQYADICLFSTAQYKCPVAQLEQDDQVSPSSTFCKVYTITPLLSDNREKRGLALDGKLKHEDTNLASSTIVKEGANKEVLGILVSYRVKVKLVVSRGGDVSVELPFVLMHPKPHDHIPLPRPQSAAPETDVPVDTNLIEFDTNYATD

For `CNC[C@H](O)c1ccc(O)c(O)c1` [Epinephrine, Epinephrine hydrochloride], the “signals of both receptor subfamilies (dopamine and adrenergic) upon stimulation” value [1] was “elevated signals”.
For Somatostatin, the “induction rate (up to)” value [2] was “up to 4 fold”, the “induction rate (up to)” value [3] was 9–10 fold and the “induction rate (up to)” value [4] was 9–10 fold.
With [Arg8]-Vasopressin acetate salt the “receptor induction by agonist” value [5] was “induced” and the “receptor induction by agonist” value [6] was “induced”.
For “β-arrestin2delta-CTEV (from UniProt P32121 1-383) (domain or fragment)”, the fold activation (split TEV signal) [7] was 314 fold, the fold activation (split TEV signal) [8] was 44.3 fold and the fold activation (split TEV signal) [9] was 89.5 fold. For the same compound, the fold change of receptor activation (split TEV signal) over unstimulated [10] was 10 fold, the fold change of receptor activation (split TEV signal) over unstimulated [11] was 13 fold and the fold change of receptor activation (split TEV signal) over unstimulated [12] was 2 fold. For the same compound, the fold change of receptor activation (split TEV signal) over unstimulated, at 10 µM serotonin [13] was 5 fold, the fold change of receptor activation (split TEV signal) over unstimulated [14] was 2 fold and the fold change of receptor activation (split TEV signal) over unstimulated [15] was 4 fold. The fold change of receptor activation (split TEV signal) over unstimulated (SSTR2 and SSTR3) was 9 to 10 fold.
